Measured values from US20170298146A1 (MODIQUEST B V, published 2017).
Non-standard residues stand in square brackets, D forms with d. No end group written: not given here. Cit = NC(=O)NCCC[C@H](N)C(=O)O

What was measured:
msVim XS/XL [1] = target: T1, msVim XS/XL (mouse, also: biotin label); assay: peptide ELISA, 0.000128 ug/well
T1 construct: also called mouse vimentin peptide
T1 peptide: YVT[Cit]SSAV[Cit]L[Cit]SSVP
Method: (§1) Biotin and citrulline-containing peptides derived from fibrinogen and vimentin were immobilized on NEUTRAVIDIN®-coated 96-well ELISA plates (0.3 μg/well). CFC-1 and CFC-0 were coated at the same concentration and served as positive and negative controls respectively for specific anti-citrulline reactivity and as coating controls. Non-coated wells were used to test for aspecific binding of the antibodies. […] Detection of bound anti-citrulline antibodies was performed by incubating the wells with rabbit-anti-human-HRP (1:2000) for one hour at RT followed by incubation with TMB substrate. The resulting OD (y-axis) is a measure for antibody binding.
(§2) Biotin-labeled and citrulline-containing fibrinogen and vimentin peptides (Table 5) were also tested for reactivity with the therapeutic antibodies. Peptides were coated on 96-well NEUTRAVIDIN®-ELISA plates.

huFibα XH [2] = target: T2, huFibα XH (human, X at position 15 is citrulline; biotin label); assay: peptide ELISA, 0.000128 ug/well
T2 peptide: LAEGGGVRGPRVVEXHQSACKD
Method: as §1, §2

msFibα XH [3] = target: T3, msFibα XH (mouse, X at position 15 is citrulline; biotin label); assay: peptide ELISA, 0.000128 ug/well
T3 peptide: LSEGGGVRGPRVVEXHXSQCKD
Method: as §1, §2

[4] = target: PREDICTED: similar to 60S ribosomal protein L29 (Cell surface heparin-binding protein HIP) [Homo sapiens] (Homo sapiens); assay: IP from huPAD4 deiminated HEK293 lysate, nLC LTQ FTMS, emPAI; against RhmAb2.101
Method: Beads were subjected to three washes with 1 ml IPP500, one wash with 1 ml IPP150 (10 mM Tris/HC1 pH 8.0, 150 mM NaCl, 0.1% NP40 and 0.1% TWEEN®-20), and subsequently incubated at room temperature with 300 μl deiminated HEK293 lysate for two hours under constant rotation. Beads were washed three times with 1 ml of IPP150 after which a small part has been used for SDS-PAGE electrophoresis to determine if the IP procedure with the HEK293 cells was successful.
To remove PEGs from the immunoprecipitated proteins, they were loaded on a 15% SDS-PAGE gel and run shortly. […] Samples were diluted 50 fold before subjecting them to nLC LTQ FTMS ULTRA analysis.

[5] = target: T4, Histone 2A citrulline-containing peptide 2 (human, also: biotin label); assay: peptide ELISA, 0.08 ug/well
T4 peptide: AKAKS[Cit]SSRAGL
Method: as §1, with “histone 2A” for “fibrinogen and vimentin”
(§3) Ninety-six-well ELISA plates were coated with NEUTRAVIDIN® (0.1 μg/well) by overnight incubation at 4° C. Wells were washed five times with PBS-TWEEN®-20 (PBS-T) and blocked by a one-hour incubation with PBS-T+1% Bovine serum albumin (BSA) at room temperature (RT). After five more washes with PBS-T, wells were incubated for one hour at RT with histone-derived citrulline and biotin-containing peptides (0.3 μg/well). […] Wells were washed five times with PBS-T and incubated with rabbit-anti-human-HRP (1:2000) for one hour at RT followed by five washes with PBS-T and three wash steps with PBS. Wells were incubated for five minutes with TMB substrate before stopping the reaction with 2 M H₂SO₄. Optical density was measured by 450 nm and is a measure for the affinity of the antibodies used.

[6] = target: T5, Histone 2A citrulline-containing peptide 1 (human, also: biotin label); assay: peptide ELISA, 0.08 ug/well
T5 construct: also called AAASGXGKQGGK
T5 peptide: AAASG[Cit]GKQGGK
Method: as §1, with “histone 2A” for “fibrinogen and vimentin”
as §3

[7] = target: T6, Histone 2A citrulline-containing peptide 5 (human, also: biotin label); assay: peptide ELISA, 0.08 ug/well
T6 peptide: VGRVH[Cit]LLRKGN
Method: as §1, with “histone 2A” for “fibrinogen and vimentin”
as §3

[8] = target: T7, Histone 2A citrulline-containing peptide 9 (human, also: biotin label); assay: peptide ELISA, 0.08 ug/well
T7 peptide: DNKKT[Cit]IIPRHL
Method: as §1, with “histone 2A” for “fibrinogen and vimentin”
as §3

[9] = target: T8, Histone 2A citrulline-containing peptide 8 (human, also: biotin label); assay: peptide ELISA, 0.08 ug/well
T8 peptide: AGNAA[Cit]DNKKTR
Method: as §1, with “histone 2A” for “fibrinogen and vimentin”
as §3

CFC-1 [10] = target: T9, CFC-1; assay: peptide ELISA, 0.08 ug/well
T9 construct: Positive control for anti-citrulline reactivity; also called cfc1 XG
Method: as §1, with “histone 2A” for “fibrinogen and vimentin”
as §3

[11] = target: T10, Histone 2A citrulline-containing peptide 3 (human, also: biotin label); assay: peptide ELISA, 0.08 ug/well
T10 peptide: KSRSS[Cit]AGLQFP
Method: as §1, with “histone 2A” for “fibrinogen and vimentin”
as §3

[12] = target: T11, Histone 2A citrulline-containing peptide 4 (human, also: biotin label); assay: peptide ELISA, 0.08 ug/well
T11 peptide: QFPVG[Cit]VHRLLR
Method: as §1, with “histone 2A” for “fibrinogen and vimentin”
as §3

[13] = target: T12, Histone 2A citrulline-containing peptide 12 (human, also: biotin label); assay: peptide ELISA, 0.08 ug/well
T12 peptide: NKLLG[Cit]VTIAQG
Method: as §1, with “histone 2A” for “fibrinogen and vimentin”
as §3

[14] = target: T13, Histone 2A citrulline-containing peptide 6 (human, also: biotin label); assay: peptide ELISA, 0.08 ug/well
T13 peptide: VHRLL[Cit]KGNYSE
Method: as §1, with “histone 2A” for “fibrinogen and vimentin”
as §3

[15] = target: T14, Histone 2A citrulline-containing peptide 11 (human, also: biotin label); assay: peptide ELISA, 0.08 ug/well
T14 peptide: LQLAI[Cit]NDEELN
Method: as §1, with “histone 2A” for “fibrinogen and vimentin”
as §3

msVim XS/XL [16] = target: T1, msVim XS/XL; assay: peptide ELISA, 0.08 ug/well
Method: as §1, §2

huFibα XH [17] = target: T2, huFibα XH; assay: peptide ELISA, 0.08 ug/well
Method: as §1, §2

CFC-1 [18] = target: T9, CFC-1; assay: peptide ELISA, 0.08 ug/well; remark: listed apart in the source
Method: as §1, §2

msFibβ XG = target: T15, msFibβ XG (mouse, also: biotin label); assay: peptide ELISA, 0.08 ug/well
T15 peptide: EPTDSLDA[Cit]GHRPVDRR
Method: as §1, §2

msFibα XG = target: T16, msFibα XG (mouse, X at position 8 is citrulline; biotin label); assay: peptide ELISA, 0.08 ug/well
T16 peptide: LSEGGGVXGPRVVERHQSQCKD
Method: as §1, §2

huFibα XG = target: T17, huFibα XG (human, X at position 8 is citrulline; biotin label); assay: peptide ELISA, 0.08 ug/well
T17 peptide: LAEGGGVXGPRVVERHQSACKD
Method: as §1, §2

msFibα XH [19] = target: T3, msFibα XH; assay: peptide ELISA, 0.08 ug/well
Method: as §1, §2

CFC-1 [20] = target: T9, CFC-1; assay: peptide ELISA, 2 ug/well
Method: as §1, with “histone 2A” for “fibrinogen and vimentin”
as §3

[21] = target: T10, Histone 2A citrulline-containing …; assay: peptide ELISA, 2 ug/well
Method: as §1, with “histone 2A” for “fibrinogen and vimentin”
as §3

[22] = target: T11, Histone 2A citrulline-containing …; assay: peptide ELISA, 2 ug/well
Method: as §1, with “histone 2A” for “fibrinogen and vimentin”
as §3

B1: RhmAb2.102 (antibody, human IgG1, lambda)
heavy: not shown
light: QSVLTQPPSMSAAPGQKVTISCSGSSSNIGNNYVSWYQQVPGTAPKLLIYDDNKRPSGIPGRFSGSKSATSATLGITGLQAGDEADYYCGSWDDNLSVVLFGGGTKLTVLGQPKAAPSVTLFPPSSEELQANKATLVCLISDFYPGAVTVAWKADSSPVKAGVETTTPSKQSNNKYAASSYLSLTPEQWKSHRSYSCQVTHEGSTVEKTVAPTECS
notes: Human IgG1 lambda; also called Rhm2.102
Q: For B1, which OD (msVim XS/XL [1]) is on record?
A: 0.133 OD

Q: What about the OD (huFibα XH [2]) of the same binder?
A: 0.12 OD

Q: And the OD (msFibα XH [3])?
A: 0.089 OD

Q: And the “Ratio 102/101” value [4]?
A: 1

Q: What about the OD [5] of the same binder?
A: 0.086 OD

Q: And the OD [6]?
A: 2.04 OD

Q: What about the OD [7] of the same binder?
A: 0.066 OD

Q: And the OD [8]?
A: 0.06 OD

Q: What about the OD [9] of the same binder?
A: 0.06 OD

Q: And the OD (CFC-1 [10])?
A: 2.66 OD

Q: What about the OD [11] of the same binder?
A: 0.091 OD

Q: What about the OD [12] of the same binder?
A: 0.192 OD

Q: What about the OD [13] of the same binder?
A: 0.06 OD

Q: What about the OD [14] of the same binder?
A: 0.123 OD

Q: And the OD [15]?
A: 0.064 OD

Q: What about the OD (msVim XS/XL [16]) of the same binder?
A: 0.515 OD

Q: And the OD (huFibα XH [17])?
A: 0.08 OD

Q: What about the OD (CFC-1 [18]) of the same binder?
A: 3.03 OD

Q: And the OD (msFibβ XG)?
A: 0.515 OD

Q: What about the OD (msFibα XG) of the same binder?
A: 0.237 OD

Q: And the OD (huFibα XG)?
A: 0.186 OD

Q: What about the OD (msFibα XH [19]) of the same binder?
A: 0.076 OD

Q: What about the OD (CFC-1 [20]) of the same binder?
A: 3.21 OD

Q: And the OD [21]?
A: 0.286 OD

Q: What about the OD [22] of the same binder?
A: 1.3 OD
